Laboratory results as given in paper PMC8215294.
Positions count from the first letter of the chain named. In names and notes the source's numbering stands. Several values for one entry are separate records, joined by “and”; a condition that tells them apart may be missing. Equal values may be shown once. Blank lines part the entries; values can stand above or below the molecule they belong to.

Assays:
[1] = molecular target: Arabidopsis thaliana thimet oligopeptidase TOP1, full-length (A. thaliana) (UniProt Q94AM1); assay: SEC; purified His-tagged TOPs treated 30 min at RT with DTTred, DTTox, GSH or GSSG, purified again and dialysed; XBridge BEH200A SEC column, 50 mM sodium phosphate, 150 mM NaCl, 0.02% NaN3, pH 7.0
TOP1^C611A, Q94AM1 = molecular target: T1, TOP1^C611A, Q94AM1; assay: size-exclusion chromatography (SEC), peak area quantification; settings: chain shown with the change; treatment (Ctrl or GSSG) not stated for this panel; parent: est. 38; read off a plot
T1 chain: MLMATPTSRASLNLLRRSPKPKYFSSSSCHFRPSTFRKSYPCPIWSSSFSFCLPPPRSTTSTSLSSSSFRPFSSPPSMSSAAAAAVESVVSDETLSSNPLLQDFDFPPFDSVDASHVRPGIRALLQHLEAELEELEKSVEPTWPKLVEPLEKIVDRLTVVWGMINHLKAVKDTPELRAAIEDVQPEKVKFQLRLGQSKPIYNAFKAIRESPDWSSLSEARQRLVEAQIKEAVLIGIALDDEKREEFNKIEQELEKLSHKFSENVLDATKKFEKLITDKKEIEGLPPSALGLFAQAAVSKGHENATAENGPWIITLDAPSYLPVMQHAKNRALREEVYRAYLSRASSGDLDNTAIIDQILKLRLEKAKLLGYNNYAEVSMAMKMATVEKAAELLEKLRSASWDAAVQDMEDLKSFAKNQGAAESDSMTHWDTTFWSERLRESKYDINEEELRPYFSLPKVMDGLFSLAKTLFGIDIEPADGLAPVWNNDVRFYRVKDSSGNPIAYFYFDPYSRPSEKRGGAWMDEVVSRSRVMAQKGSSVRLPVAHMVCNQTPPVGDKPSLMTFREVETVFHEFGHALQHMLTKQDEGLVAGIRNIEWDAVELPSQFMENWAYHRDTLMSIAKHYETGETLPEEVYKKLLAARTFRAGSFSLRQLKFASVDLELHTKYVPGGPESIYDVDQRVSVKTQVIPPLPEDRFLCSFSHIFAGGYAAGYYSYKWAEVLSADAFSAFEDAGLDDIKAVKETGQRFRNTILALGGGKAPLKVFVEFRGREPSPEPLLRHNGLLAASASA

TOP1^C699A, Q94AM1 = molecular target: T2, TOP1^C699A, Q94AM1; assay: as above; settings: chain shown with the change; treatment (Ctrl or GSSG) not stated for this panel; parent: est. 38; read off a plot
T2 chain: T1 chain with A611C, C699A

Molecule: Arabidopsis thaliana thimet oligopeptidase TOP1, full-length (from UniProt Q94AM1 83-791) (enzyme)
stoichiometry N [1]: 2 and 3

other: percent dimer (TOP1^C611A, Q94AM1): 3.5%
B1: Arabidopsis thaliana thimet oligopeptidase TOP1, full-length, Q94AM1 C611A (protein)
chain: T1 chain

other: percent dimer (TOP1^C699A, Q94AM1): 17%
B2: Arabidopsis thaliana thimet oligopeptidase TOP1, full-length, Q94AM1 C699A (protein)
chain: T1 chain with A611C, C699A
